Reference: patent publication US20140274782A1, “AFFINITY REAGENTS AND METHODS FOR DETECTION, PURIFICATION, AND PROTEOMIC ANALYSIS OF METHYLATED PROTEINS” (The Board of Trustees of the Leland Stanford Junior …, priority 2013, published 2014)

T1: G9a and GLP (Homo sapiens, UniProt Q96KQ7+Q9H9B1)
T1 sequence (Q96KQ7 2-1210 limits assumed): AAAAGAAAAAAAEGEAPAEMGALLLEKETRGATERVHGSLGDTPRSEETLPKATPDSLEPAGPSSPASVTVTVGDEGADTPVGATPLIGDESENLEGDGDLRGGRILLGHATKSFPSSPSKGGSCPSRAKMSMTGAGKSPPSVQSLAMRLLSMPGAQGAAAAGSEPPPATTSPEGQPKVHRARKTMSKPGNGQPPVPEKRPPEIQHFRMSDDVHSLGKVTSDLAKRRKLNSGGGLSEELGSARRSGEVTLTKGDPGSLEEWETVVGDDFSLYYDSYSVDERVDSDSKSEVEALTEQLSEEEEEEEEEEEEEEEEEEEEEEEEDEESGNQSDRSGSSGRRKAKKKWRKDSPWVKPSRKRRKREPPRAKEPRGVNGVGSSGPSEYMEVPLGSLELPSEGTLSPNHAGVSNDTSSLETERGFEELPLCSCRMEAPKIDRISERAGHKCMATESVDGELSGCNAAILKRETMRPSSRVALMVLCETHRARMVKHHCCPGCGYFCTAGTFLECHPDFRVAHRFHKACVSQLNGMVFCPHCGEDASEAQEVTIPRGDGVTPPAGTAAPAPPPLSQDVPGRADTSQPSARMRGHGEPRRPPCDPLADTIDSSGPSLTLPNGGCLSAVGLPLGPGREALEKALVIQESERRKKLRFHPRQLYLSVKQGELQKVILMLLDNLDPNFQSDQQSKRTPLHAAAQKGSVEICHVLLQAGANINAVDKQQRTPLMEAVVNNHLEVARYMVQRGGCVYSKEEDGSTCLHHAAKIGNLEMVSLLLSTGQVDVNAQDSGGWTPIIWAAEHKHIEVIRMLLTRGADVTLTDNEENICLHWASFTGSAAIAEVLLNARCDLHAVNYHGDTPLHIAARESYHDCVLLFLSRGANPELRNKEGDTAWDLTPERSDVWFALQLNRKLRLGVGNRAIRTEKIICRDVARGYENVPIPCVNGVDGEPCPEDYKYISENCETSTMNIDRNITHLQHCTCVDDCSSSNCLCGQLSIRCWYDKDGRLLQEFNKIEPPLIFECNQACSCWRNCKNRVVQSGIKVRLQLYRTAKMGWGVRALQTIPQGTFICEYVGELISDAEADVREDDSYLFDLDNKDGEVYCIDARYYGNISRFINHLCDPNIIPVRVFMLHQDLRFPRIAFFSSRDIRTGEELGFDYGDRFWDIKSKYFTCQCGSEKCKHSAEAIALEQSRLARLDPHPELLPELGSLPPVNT
T1 sequence (Q9H9B1 2-1298 limits assumed): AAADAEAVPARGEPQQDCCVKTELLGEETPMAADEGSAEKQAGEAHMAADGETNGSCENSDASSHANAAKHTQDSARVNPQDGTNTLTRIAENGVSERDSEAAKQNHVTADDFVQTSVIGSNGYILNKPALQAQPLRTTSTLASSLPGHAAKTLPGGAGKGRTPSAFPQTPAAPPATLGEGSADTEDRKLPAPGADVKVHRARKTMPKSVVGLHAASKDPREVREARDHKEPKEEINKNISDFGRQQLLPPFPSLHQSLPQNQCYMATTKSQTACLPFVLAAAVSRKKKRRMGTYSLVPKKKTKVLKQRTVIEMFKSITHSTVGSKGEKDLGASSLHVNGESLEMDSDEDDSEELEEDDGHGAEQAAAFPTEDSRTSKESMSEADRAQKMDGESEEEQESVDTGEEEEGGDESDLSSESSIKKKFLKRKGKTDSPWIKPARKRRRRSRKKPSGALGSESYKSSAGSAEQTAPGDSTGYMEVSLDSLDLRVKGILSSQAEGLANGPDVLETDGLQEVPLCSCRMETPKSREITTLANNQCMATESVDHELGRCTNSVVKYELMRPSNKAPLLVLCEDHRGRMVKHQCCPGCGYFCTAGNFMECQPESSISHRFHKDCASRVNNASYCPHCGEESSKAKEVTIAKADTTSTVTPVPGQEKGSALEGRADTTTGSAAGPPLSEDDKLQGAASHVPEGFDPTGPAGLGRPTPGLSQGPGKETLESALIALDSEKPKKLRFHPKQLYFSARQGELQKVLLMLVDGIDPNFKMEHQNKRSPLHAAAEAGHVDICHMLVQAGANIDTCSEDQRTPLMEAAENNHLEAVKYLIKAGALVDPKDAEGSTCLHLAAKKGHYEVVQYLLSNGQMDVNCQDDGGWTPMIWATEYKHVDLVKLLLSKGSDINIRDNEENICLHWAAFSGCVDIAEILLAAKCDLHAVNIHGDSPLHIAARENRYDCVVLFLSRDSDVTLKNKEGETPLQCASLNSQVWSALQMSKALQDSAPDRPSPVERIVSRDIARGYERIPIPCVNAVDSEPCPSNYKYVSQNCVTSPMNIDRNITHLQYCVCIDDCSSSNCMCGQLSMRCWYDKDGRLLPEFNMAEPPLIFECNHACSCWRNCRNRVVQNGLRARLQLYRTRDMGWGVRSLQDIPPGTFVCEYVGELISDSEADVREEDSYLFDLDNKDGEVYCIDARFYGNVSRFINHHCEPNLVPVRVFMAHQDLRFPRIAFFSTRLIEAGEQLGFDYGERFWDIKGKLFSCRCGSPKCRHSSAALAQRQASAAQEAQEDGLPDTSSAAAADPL


Key:
3×MBT domain of L3MBTL1 = assay: Triple SILAC pull-down, 3xMBT/3xMBTD355N ratio (cytoplasmic, nuclear and chromatin fractions of 293T cells); type: binding, human; conditions: SILAC ratio, pull-down 3xMBT vs 3xMBTD355N; for 3xMBT/D355N UNC Heavy: experiment with UNC0638 in heavy SILAC media; for 3xMBT/D355N UNC Light: experiment with UNC0638 in light SILAC media;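 as to all read-outs here: proteins quantified with MaxQuant, requiring at least two unique peptides and quantification in both label directions, normalized to the mean of proteins from a digested loading control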
G9a and GLP = biological target: T1, G9a and GLP; assay: Triple SILAC pull-down after UNC0638 treatment of 293T cells, DMSO/UNC0638 ratio of protein captured by 3×MBT; type: cell-based; parameters: cells were treated for 24 hours with UNC0638 at 2.5 μM or DMSO vehicle control; endogenous in cells; host or cells: HEK 293T; conditions: for Relative to UNC0638 UNC Heavy / Relative to UNC0638 UNC Light: SILAC ratio DMSO/UNC0638 of protein pulled down with 3xMBT; for Relative to UNC0638 UNC Heavy: UNC0638 in heavy SILAC media; for Relative to UNC0638 UNC Light: UNC0638 in light SILAC media; for Relative to UNC0638 Average: average of UNC Light and UNC Heavy experiments;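 as to all read-outs here: mass spectrometry (Q-Exactive) SILAC quantitation, DMSO/UNC0638 ratio computed after subtracting 3×MBTD355N mutant pull-down background, only proteins with at least twofold 3×MBT over mutant signal considered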

Molecule	3xMBT/D355N UNC Heavy (3×MBT domain of L3MBTL1) [log base 2]	3xMBT/D355N UNC Light (3×MBT domain of L3MBTL1) [log base 2]	Relative to UNC0638 UNC Heavy (G9a and GLP) [log base 2]	Relative to UNC0638 UNC Light (G9a and GLP) [log base 2]	Relative to UNC0638 Average (G9a and GLP) [log base 2]
NHP2L1: protein with methylated lysine identified in 3xMBT pull-down (protein, UniProt P55769 1-128, looked up) NHP2-like protein 1: MTEADVNPKAYPLADAHLTKKLLDLVQQSCNYKQLRKGANEATKTLNRGISEFIVMAADAEPLEIILHLPLLCEDKNVPYVFVRSKQALGRACGVSRPVIACSVTIKEGSQLKQQIQSIQQSIERLLV	1.56	3.46	−0.86	1.33	0.24
GTF2I: protein with methylated lysine identified in 3xMBT pull-down (protein, UniProt P78347 2-998, looked up, methylated lysine, protein with methylated lysine identified in 3xMBT pull-down) General transcription factor …: AQVAMSTLPVEDEESSESRMVVTFLMSALESMCKELAKSKAEVACIAVYETDVFVVGTERGRAFVNTRKDFQKDFVKYCVEEEEKAAEMHKMKSTTQANRMSVDAVEIETLRKTVEDYFCFCYGKALGKSTVVPVPYEKMLRDQSAVVVQGLPEGVAFKHPENYDLATLKWILENKAGISFIIKRPFLEPKKHVGGRVMVTDADRSILSPGGSCGPIKVKTEPTEDSGISLEMAAVTVKEESEDPDYYQYNIQAGPSETDDVDEKQPLSKPLQGSHHSSEGNEGTEMEVPAEDSTQHVPSETSEDPEVEVTIEDDDYSPPSKRPKANELPQPPVPEPANAGKRKVREFNFEKWNARITDLRKQVEELFERKYAQAIKAKGPVTIPYPLFQSHVEDLYVEGLPEGIPFRRPSTYGIPRLERILLAKERIRFVIKKHELLNSTREDLQLDKPASGVKEEWYARITKLRKMVDQLFCKKFAEALGSTEAKAVPYQKFEAHPNDLYVEGLPENIPFRSPSWYGIPRLEKIIQVGNRIKFVIKRPELLTHSTTEVTQPRTNTPVKEDWNVRITKLRKQVEEIFNLKFAQALGLTEAVKVPYPVFESNPEFLYVEGLPEGIPFRSPTWFGIPRLERIVRGSNKIKFVVKKPELVISYLPPGMASKINTKALQSPKRPRSPGSNSKVPEIEVTVEGPNNNNPQTSAVRTPTQTNGSNVPFKPRGREFSFEAWNAKITDLKQKVENLFNEKCGEALGLKQAVKVPFALFESFPEDFYVEGLPEGVPFRRPSTFGIPRLEKILRNKAKIKFIIKKPEMFETAIKESTSSKSPPRKINSSPNVNTTASGVEDLNIIQVTIPDDDNERLSKVEKARQLREQVNDLFSRKFGEAIGMGFPVKVPYRKITINPGCVVVDGMPPGVSFKAPSYLEISSMRRILDSAEFIKFTVIRPFPGLVINNQLVDQSESEGPVIQESAEPSQLEVPATEEIKETDGSSQIKQEPDPTW	3.02	2.75	0.31	0.00	0.16
MCM4: protein with methylated lysine identified in 3xMBT pull-down (protein, UniProt P33991 2-863, looked up, methylated lysine, protein with methylated lysine identified in 3xMBT pull-down) DNA replication licensing …: SSPASTPSRRGSRRGRATPAQTPRSEDARSSPSQRRRGEDSTSTGELQPMPTSPGVDLQSPAAQDVLFSSPPQMHSSAIPLDFDVSSPLTYGTPSSRVEGTPRSGVRGTPVRQRPDLGSAQKGLQVDLQSDGAAAEDIVASEQSLGQKLVIWGTDVNVAACKENFQRFLQRFIDPLAKEEENVGIDITEPLYMQRLGEINVIGEPFLNVNCEHIKSFDKNLYRQLISYPQEVIPTFDMAVNEIFFDRYPDSILEHQIQVRPFNALKTKNMRNLNPEDIDQLITISGMVIRTSQLIPEMQEAFFQCQVCAHTTRVEMDRGRIAEPSVCGRCHTTHSMALIHNRSLFSDKQMIKLQESPEDMPAGQTPHTVILFAHNDLVDKVQPGDRVNVTGIYRAVPIRVNPRVSNVKSVYKTHIDVIHYRKTDAKRLHGLDEEAEQKLFSEKRVELLKELSRKPDIYERLASALAPSIYEHEDIKKGILLQLFGGTRKDFSHTGRGKFRAEINILLCGDPGTSKSQLLQYVYNLVPRGQYTSGKGSSAVGLTAYVMKDPETRQLVLQTGALVLSDNGICCIDEFDKMNESTRSVLHEVMEQQTLSIAKAGIICQLNARTSVLAAANPIESQWNPKKTTIENIQLPHTLLSRFDLIFLLLDPQDEAYDRRLAHHLVALYYQSEEQAEEELLDMAVLKDYIAYAHSTIMPRLSEEASQALIEAYVDMRKIGSSRGMVSAYPRQLESLIRLAEAHAKVRLSNKVEAIDVEEAKRLHREALKQSATDPRTGIVDISILTTGMSATSRKRKEELAEALKKLILSKGKTPALKYQQLFEDIRGQSDIAITKDMFEEALRALADDDFLTVTGKTVRLL	1.92	2.16	0.24	0.15	0.20
